The conditions of this data set: Bacillus amyloliquefaciens; pH 6.3; 25 °C; Urea; Fluorescence; MES 1.00 M; NaCl 613 mM; reversible: yes; whole UniProt chain shown.

B1: Ribonuclease wild type, P00648 (protein)
chain: MMKMEGIALKKRLSWISVCLLVLVSAAGMLFSTAAKTETSSHKAHTEAQVINTFDGVADYLQTYHKLPDNYITKSEAQALGWVASKGNLADVAPGKSIGGDIFSNREGKLPGKSGRTWREADINYTSGFRNSDRILYSSDWLIYKTTDHYQTFTKIR
As for B1, the denaturant m value was determined as 2.22 kcal/mol/M, the “denaturant midpoint (higher = more stable)” value is 4.57 M and the unfolding free energy is 10.2 kcal/mol.

The values above are taken from FireProtDB (doi:10.1016/0022-2836(91)90725-l).
